{"source": "patent US20110165564", "about": "“SEQUENCE-SPECIFIC DETECTION OF METHYLATION IN BIOMOLECULES” (MAX-PLANCK-GESELLSCHAFT ZUR FÖRDERUNG DER …, published 2011)", "binders": {"B1": {"name": "duplex I-II (hemimethylated) (dsDNA)", "DNA 1": "TGTCAGCGCATGA", "DNA 2": "TCATGCGCTGACA", "modifications": "5mC at M in lower strand 5'-…-3'"}}, "target": "T1, M.HhaI (DNA cytosine-5 methyltransferase) (Haemophilus haemolyticus, UniProt P05102 P05102:1-327)", "T1 sequence": "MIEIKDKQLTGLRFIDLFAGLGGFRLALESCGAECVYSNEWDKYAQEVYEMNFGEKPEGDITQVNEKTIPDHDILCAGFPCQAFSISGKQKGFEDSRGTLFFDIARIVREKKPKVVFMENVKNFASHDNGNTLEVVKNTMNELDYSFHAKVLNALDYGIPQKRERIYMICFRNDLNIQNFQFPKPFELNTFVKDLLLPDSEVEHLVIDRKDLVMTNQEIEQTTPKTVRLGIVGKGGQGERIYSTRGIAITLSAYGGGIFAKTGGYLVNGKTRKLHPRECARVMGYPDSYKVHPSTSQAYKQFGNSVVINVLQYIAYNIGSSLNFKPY", "assay": "anion exchange HPLC; coupling of aziridine cofactors 1, 2, 3 almost complete; non-covalent M.HhaI-product DNA complex; 10 mM Tris pH 7.4, 50 mM NaCl, 37 C", "description": "Solutions (400 μL) of aziridine cofactor 1, 2 or 3 (32 nmol, 80 μM), duplex oligodeoxynucleotide I-II (4 nmol, 10 μM) and M.HhaI (4.4 nmol, 11 μM) in buffer (10 mM Tris hydrochloride, pH 7.4, 50 mM sodium chloride, 0.05 mM ethylenediaminetetraacetic acid and 2 mM β-mercaptoethanol) were incubated at 37° C. The progress of the coupling reactions was monitored by anion exchange HPLC (Poros 10 HQ, 10 μm, 4.6×10 mm, Applied Biosystems). Compounds were eluted with aqueous potassium chloride (0.2 M for 5 min, followed by linear gradients to […], to 0.6 M in 20 min and to 1 M in 5 min) in Tris hydrochloride buffer (10 mM, pH 7.6) at a flow of 4 mL/min. […] These new compounds are assigned to non-covalent protein-DNA complexes between M.HhaI and the coupling products I¹-II, I²-II and I³-II based on their UV absorption ratio at 260 nm and 280 nm.\nThe presence and functionality of biotin groups in I¹-II, I²-II and I³-II were verified by addition of streptavidin. Residual aziridine cofactors 1, 2 or 3 were first removed from the labelled duplexes I¹-II, I²-II or I³-II by gel filtration using NAP-5 columns (Amersham Biosciences, Freiburg, Germany) according to the instructions of the supplier. Afterwards, streptavidin (25 μg) was added to the solutions (25 μL, 0.25 nmol I¹-II, I²-II or I³-II) and incubation was performed at 37° C. for 30 min.", "data": [{"binder": "B1", "values": [{"measurement": "binding result", "result": "binds"}]}]}
